Like-named read-outs stand apart in the source and are kept apart here.
T1: ErmS (TlrA) rRNA adenine-N6 dimethyltransferase (Streptomyces fradiae, UniProt P45439 1-319)
T1 sequence: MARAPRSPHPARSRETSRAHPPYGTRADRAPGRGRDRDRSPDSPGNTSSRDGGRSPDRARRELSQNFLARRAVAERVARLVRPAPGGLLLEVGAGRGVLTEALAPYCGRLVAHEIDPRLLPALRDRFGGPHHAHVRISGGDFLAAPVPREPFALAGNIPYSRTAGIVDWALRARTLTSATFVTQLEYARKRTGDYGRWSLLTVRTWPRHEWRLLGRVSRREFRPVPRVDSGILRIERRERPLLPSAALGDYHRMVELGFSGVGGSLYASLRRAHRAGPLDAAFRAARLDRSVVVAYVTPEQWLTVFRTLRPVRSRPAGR


Assays:
[1] = molecular target: T1, ErmS (TlrA) rRNA adenine-N6 …; assay: stopped-flow fluorescence
[2] = molecular target: T1, ErmS (TlrA) rRNA adenine-N6 …; assay: stopped-flow fluorescence; remark: listed apart in the source

Binder | binding result [1] | binding result [2]
GGCAAGACGGAAAGACCCCUAUCUGCC (structured_RNA, 2-aminopurine replaces A2058 (nt 11)) [2Ap2058] | binds | –
GGCAAGACGGAAAGACCCCUAUCUGCC (structured_RNA, 2-aminopurine replaces A2054 (nt 7)) [2Ap2054] | – | binds

— article PMC9386465
